Kd data for two substances are collected here from PMC9683001.

In this data set the test system is AMV coat protein (CP) (Alfalfa mosaic virus). The data set can be described thus: EMSA. Particulars: 10 mM Na-phosphate pH 7.0, 1 mM EDTA, 5 U human placental RNase inhibitor, 10 uL, 30 min at room temperature; RNA preheated 65 C 5 min; 1.2% agarose gel in TAE.

In general, Kd refers to the free concentration of one partner at which half of the binding sites on the other are occupied at equilibrium, for simple one-to-one binding.

5'UTRΔ140 showed a Kd of 41.1 µM.
Substance 5'UTR-WT (AMV RNA3 5' UTR, plus strand) had a Kd of 26.1 µM.
